The numbers were not newly measured in publication PMC9638026, which cites them from elsewhere.

The target in this series is TIRR (Homo sapiens) (UniProt Q9BRJ7). To be noted: cited from earlier work.
Sequence of TIRR (Homo sapiens) (Q9BRJ7 whole entry): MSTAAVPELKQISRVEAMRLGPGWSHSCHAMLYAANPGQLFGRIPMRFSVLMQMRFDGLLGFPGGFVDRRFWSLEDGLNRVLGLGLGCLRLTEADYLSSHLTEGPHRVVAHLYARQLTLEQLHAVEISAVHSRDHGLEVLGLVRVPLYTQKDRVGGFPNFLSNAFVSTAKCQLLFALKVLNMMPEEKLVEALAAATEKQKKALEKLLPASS

Sequence of 53BP1 (Q12888 whole entry): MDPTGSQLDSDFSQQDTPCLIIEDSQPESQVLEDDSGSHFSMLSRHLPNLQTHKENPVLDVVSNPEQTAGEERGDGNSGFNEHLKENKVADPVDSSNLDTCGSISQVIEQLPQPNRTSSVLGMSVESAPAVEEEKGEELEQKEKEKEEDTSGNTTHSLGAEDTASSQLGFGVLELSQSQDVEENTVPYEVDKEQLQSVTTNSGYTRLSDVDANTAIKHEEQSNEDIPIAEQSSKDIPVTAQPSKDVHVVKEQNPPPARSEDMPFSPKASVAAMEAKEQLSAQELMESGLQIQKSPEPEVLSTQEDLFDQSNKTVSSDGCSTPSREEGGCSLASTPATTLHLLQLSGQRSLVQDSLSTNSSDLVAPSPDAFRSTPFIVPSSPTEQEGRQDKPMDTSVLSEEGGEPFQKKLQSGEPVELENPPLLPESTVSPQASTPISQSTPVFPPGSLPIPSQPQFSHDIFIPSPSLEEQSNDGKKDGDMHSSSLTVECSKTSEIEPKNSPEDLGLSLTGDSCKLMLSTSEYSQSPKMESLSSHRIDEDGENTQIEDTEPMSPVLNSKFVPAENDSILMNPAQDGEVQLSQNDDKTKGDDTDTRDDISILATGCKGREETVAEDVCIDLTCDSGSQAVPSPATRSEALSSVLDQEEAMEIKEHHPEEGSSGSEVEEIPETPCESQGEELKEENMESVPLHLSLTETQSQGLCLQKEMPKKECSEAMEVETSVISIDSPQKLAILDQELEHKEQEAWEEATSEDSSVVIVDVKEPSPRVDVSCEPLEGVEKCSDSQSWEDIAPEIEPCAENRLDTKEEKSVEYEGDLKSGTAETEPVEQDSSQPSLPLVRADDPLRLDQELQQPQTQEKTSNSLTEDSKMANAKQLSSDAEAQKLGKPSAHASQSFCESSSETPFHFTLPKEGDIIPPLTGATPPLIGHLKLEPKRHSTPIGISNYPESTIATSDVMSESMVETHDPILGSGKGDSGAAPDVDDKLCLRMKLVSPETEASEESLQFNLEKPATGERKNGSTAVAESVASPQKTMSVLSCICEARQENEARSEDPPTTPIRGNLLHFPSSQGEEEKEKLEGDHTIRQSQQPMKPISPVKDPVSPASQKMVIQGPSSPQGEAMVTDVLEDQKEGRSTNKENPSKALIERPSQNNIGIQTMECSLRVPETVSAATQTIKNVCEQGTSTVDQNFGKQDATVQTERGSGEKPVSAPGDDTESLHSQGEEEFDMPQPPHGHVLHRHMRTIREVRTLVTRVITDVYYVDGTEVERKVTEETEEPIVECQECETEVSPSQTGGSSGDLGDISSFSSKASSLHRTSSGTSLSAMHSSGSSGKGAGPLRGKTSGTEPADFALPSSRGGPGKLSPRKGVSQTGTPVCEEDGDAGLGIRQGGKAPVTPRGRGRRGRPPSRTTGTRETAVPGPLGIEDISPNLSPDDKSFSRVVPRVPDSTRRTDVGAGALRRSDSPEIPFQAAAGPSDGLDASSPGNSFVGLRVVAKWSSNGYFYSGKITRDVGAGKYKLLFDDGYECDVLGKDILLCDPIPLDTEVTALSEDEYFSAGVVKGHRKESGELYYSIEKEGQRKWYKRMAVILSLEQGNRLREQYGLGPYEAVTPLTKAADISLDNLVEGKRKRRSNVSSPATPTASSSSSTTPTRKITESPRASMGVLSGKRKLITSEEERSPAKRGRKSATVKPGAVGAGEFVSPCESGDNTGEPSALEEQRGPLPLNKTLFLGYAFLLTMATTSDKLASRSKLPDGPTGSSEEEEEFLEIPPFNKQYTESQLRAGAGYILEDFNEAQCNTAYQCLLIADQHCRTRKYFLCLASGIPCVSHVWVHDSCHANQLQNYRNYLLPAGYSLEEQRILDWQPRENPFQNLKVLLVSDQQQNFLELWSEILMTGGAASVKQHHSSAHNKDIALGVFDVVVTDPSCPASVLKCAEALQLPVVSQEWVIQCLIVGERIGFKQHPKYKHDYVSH

On to 53BP1 (from UniProt Q12888), for which the Kd was 1000 nM.

Broadly, the Kd is the equilibrium constant for the complex coming apart.
